From the nanobody polyreactivity screen of Harvey et al. (2022)

Assay: yeast display, Sf9 membrane polyspecificity reagent, FACS + sequencing; frameworks hold sequencing errors
How it was run: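 Synthetic nanobody libraries on Saccharomyces cerevisiae BJ5465 were galactose-induced for 36–48 hours, stained 1 hour at 4 °C with 10% biotinylated, detergent-solubilized Sf9 membrane reagent and enriched on streptavidin microbeads. FACS then separated cells into low and high (top ~1%) gates by anti-HA (expression) and streptavidin (reagent binding) fluorescence. Genes were colony-PCR amplified, MiSeq 2 × 250 sequenced and CDR-length filtered. A clone's polyreactivity label is that of its gate of origin.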

| Sequence | polyreactivity (PSR sort gate) |
| --- | --- |
| QVQLVESGGGLVQAGGSLRLSCAASGYTFVWYAMGWYRQAPGKERELVAAISASGGSTYYADSVKGRFTISRDNAKNTVYLQMNSLKPEDTAVYYCNAVGALSVYGGNGYWGQGTQVTVSS | high polyreactivity |
| QVQLVESGGGLVQAGGSLRLSCAASGRTFSAYAMVWYRQAPGKERELVAAISRRGGSTYYADSVKGRFTISRDNAKNTVYLQMKSLKPEDTAVYYCAADVYKQYGYYFWGQGTQVTVSS | high polyreactivity |
| QVQLVESGGGLVQAGGSLRLSCAASGLTFSTYDMGGYRQAPGKERELVAAITSGDGSTYYADSVKGRFTISRDNAKNTVYLQMNSLKPEDTAVYYCAADYLEWYGDVLFPYDYWGQGTQVTVSS | low polyreactivity |
| QVQLVESGGGLVQAGGSLRLSSAASGSILTPNAMGWYRQAPGKERELVAAINYSGGSTYYADSVKGRFTISRDTAKNTVYLQMNSLKPEDTAVYYCAVPYWYGRGHCYWGQGTQVTVSS | low polyreactivity |
| QVQLVESGGRLVQAGGSLRLSCAASGRTIYSNTMGWYRQAPGKEREFVAAIPSIVGSTYYADSVKGRFTISRDNAKNTVYLQMNSLKPEDTAVYYCAVTDYYSYLLRYDSWGQGTQVTVSS | low polyreactivity |
| QVQLVESPGGLVQAGGSLRLSCAASGRTFYRNAMGWYRQAPGKERELVAVISLNGGRTYYADSVKGRFTISRDNAKNTVYLQMNSLKPEDTAVYYCNKLTGPVFTRGFYYWGQGTQVTVSS | high polyreactivity |
| QVQLVESGGGVVQAGGSLRLSCAASGTFYLYAMGWYRQAPGKERELVAAISGSGSTNYADSVKGRFTISRDNAKNTVYLQMNSLKPEDTAVYYCAAYQRYDSVTGARYEYDYWGQGTQVTVSS | low polyreactivity |
| QVQLVESGGGLVQAGGSLRLSCAASGSIFNYYAMGWYRQEPGKERELVAAISSGGSTYYADSVKGRFTISRDNAKNTVYLQMNSLKPEDTAVYYCAVDSPYLDEYDYWGQGTQVTVSS | high polyreactivity |
| QVQLVVSGGGLDQARGSLRLSCAASGSNFFYYAMGWYRQAPWKERELVAGINWSGGSTYADSVKGRFTISRDNAKNTVYLQMNSLKPEDTAVYYCAAKFYSERSSYHYWGQGTQVTVSS | low polyreactivity |
| QVQLVESGGGLVQAGGSLRLSCAASGFTFRYYVMGWYRQAPGTERELVAAISWTGGSTYYADSVKGRFTISRDNAKNTVYLQMTSLKPEDTAVYYCNAASLSKSDYWGQGTQVTVSS | high polyreactivity |
| QVQLVESGGGLVQAGGSLRLSCAASGRIFGTDVMGWYRQAPGKERELVARITGGGSTNYADSVKGRFTISRDNAKNTVYFQMNSLKPEDTAVYYCARDYGPYLSPENPAPMDYWGQGTQVTVSS | low polyreactivity |
| QVQLVESGGGLVQAGGSLRLSCAASGRIFVSYTMGWYRQAPGKERELVAAIRGTGSTYYADSVKGRFTISRDNAKNTVYLQMNSLKPEDTAVYYCNADYLRWDIWYWHGYDYWGQGTQVTVSS | high polyreactivity |
| QDQLVESGGGLVQAGGSLRLSCAATGRTFYFYTMGWYRQAPGKERELVATAITSGGSTNYADSVKGRFTISRDNAKNTVYLQMNSLKPEDTAVYYCAATLYWGWVFSYTSFDYWGQGTQVTVSS | low polyreactivity |
| QVQIVESGGGLVQAGGSLRLSCAASGFIFPANAMGWYRQAPGKEREFVAVISYSGGRTYYADSVKGRFTISRDNAKNTVYLQMNSLKPEDTSVYYCNVVRVATWGYDYWGQGSQVTVSS | low polyreactivity |
| QVQLVESWGGLVQAGGSLRLSCAASGSIFYVNDMGWYRQAPGKERELVAAISSTGSTKYADSVKGRFTISRDNAKNTVYLQMNSLKPEDTAVSYCAKEPGHRFEFDYWGQGTQVTVSS | low polyreactivity |
| QVQLQESGGGLEQAGGSLRLSCAASGYISDIGTMGWYRQAPAKEREFVATIVVGSTTNYADSVKGRFTISRDNAKNTVYLQPESGRYRGVLLSGWLLAVGKFTYWGQGTQETVSS | low polyreactivity |
| QVQLVESGGGLVQSGGSLRLSCAASGLTLGHNAMGLYRQAPGKERELVAAITRGGSTNYSDSVKGRFTISRDNAKNTVYFHMNSLKPEYTAVYSCAADLYLGWYYGFEYDYWGQGTQVTVSS | low polyreactivity |
| QVQLVESGGGLVQAGGSLRLSCAASGLTFIPNAMGWYRQAPGKERELVAAISGTGGSTYYADSVKGRFTISRDNAKNTVYLQMNSLKPEDTAVYYCAARRRYKSGYWGQGTQVTVSS | high polyreactivity |
| QDQLVESRGGIVQAGGRLRLSCAASGSRFGGYGMGWYRQAPWKEREFVAVITKRGGSTYYADSVKGRFTISRDNAYNTVYLQMNSLKPEDTAVDYCNKVGYYASVLCYDYWGQGTQVTVSS | high polyreactivity |
| QVQLVETGGGLVQAGGSLRLSCAASGFTFKLYAMGWYRQAPGKERVLVAAISSSGGRTYYADSVKGRFTISRDNAKNTVYLQMNSLKPEDTAVYYCNAVRTVNDYHYDYWGQGTQVTVSS | high polyreactivity |
| QVQLVESWGGLVQAGGSLRLSCAASGRIFGANARGWYRQAPGKERELVATITYGGTSTYYADSVKGRFTISRDNAKNSVYLQLNSLKPEYTADYYCAAASTYPLPYDFWGQGTQVTVSS | low polyreactivity |
| QVQLVESGGGLVQAGGSLRLSCASSGTFRLYAMGWYRQAPGKEREFVAAITSGGRTYADSVKGRFTISRDNAKNTVYLQMNSLKPEDTAVYYCAADAGRILFSGYDYWGQGTQVTVSS | low polyreactivity |

| Sequence | polyreactivity (PSR sort gate) |
| --- | --- |
| QVQLVESGGGLVQAGGSLRLSCAASGFTFRTYAKGWYRQAPAKERELVADISGSGGSTYYADSVKGRFTISRDNAKNTVYLQMNSLKPEDTAVYYCAADYASWSNWGYEYWGQGTQVTVSS | high polyreactivity |
| QVQLVESGGGLVQAGGSLRLSCAASGSIFDHYTMGWYRQAPGKERELVARISSRGGSTYYADSVKGRFTISRDNAKNTVYLQMNSLKPEDTAVYYCAAYKKLLYYKFGSWGQGTQVTVSS | high polyreactivity |
| QVQLVESGGGLVQAGGSLRLSCAASGSIYGPYAMGWYRQAPGKERELVAAIAESSGSTYYADSVKGRFTISRDNAKNTVYLQMNRMKPEDTAVYYCAAEQITGWSWVWGSWYDYWGQGTQVTVSS | low polyreactivity |
| QVKLEESGGRLVQAGGTLRLRCAASGIIYRFYTIGWYRQAPGKERELVAAIRSGGRTYYADSVKGRFTISRDNAKNTVYLQINSLKPEDSAVYYCAKEPSRYSRYNYWGQGTQVTVSS | high polyreactivity |
| QVQLVESGGGLVQAGGSLRLSCAASGSIFGYYAMGWYRQAPGKERELVAAISSGGNTNYADSVNGRFTISRDNAKITVYLQMTSLKPEDTAVYDCATRARYKRIRYDYWGQGTKVTVSS | high polyreactivity |
| QVQLVESGGGLVQAGGSLRLSCAASGSTFHRYTMGWYRQAPGKERELVAAISSGGRTYYADSVKGRFTISRDNAKNTVYLQKNSLKPEDTAVYYCNSRYPRQYWGGYDYWGQGTQVTVSS | high polyreactivity |
| QVQLVESGGGLVQAGGSLRLICAASGNIFGAYAMGWNIQAPGKERELVAVIRFDDGSTYYADSVKGRFTISRDNAKNTVYLQMNSLKPEDTAVDFCAVRLYLEMDYWGQGTQVTVSA | high polyreactivity |
| QVQLVESGGGLVQAGGSLRLSCAASGITFVYYAMGWYRQAPGKERELVAAITSDGGSTYYADSVKGRFTISRDNAKNTVYLQMNSLKPEDTAVYYCAAEWTSWSWWYGWYEFDYWGQGTQVTVSS | high polyreactivity |
| QVQLVESGGGLVQAGGSLRLSCAASGSTFGVNALGWYRQAPGKERELVAVITRSGGSTYYADSVKGRFTISRDNAKNTVYLQMNSLKPEDTAVYYCAKSGVVDWGQGTQVTVSS | low polyreactivity |
| QVQLVESGGGLVQAGGSLRLSCAASGRILYKYAMGWYRQAPGKERELVAAISWRGTTTYYADSVKGRFTISRDNAKNTVYLQMNSLKPEDTAVYYCAKDRSYGYFSRPVSQYDYWGQGTQVTVSS | high polyreactivity |
| QVQLVESGGGLVQAGGSLRLSCAASGRTFANNAMGWYRQAPGKERELVAAISSSDDSTYYADSVKGRFTISRDNAKNTVYLQMNILKPEDTAVYYCAAPYPGHQSRFGYESWGQGTQVTVSS | low polyreactivity |
| QVQLVESGGGLVQAGGSLRLSCAASGRIFRYYAMGWYRQAPGKERELVASISSGGSTNYADSVKGRFTISRDNAKNTVYLQMNSLKPEDTAVYYCATVRRSTGGRLYYWGQGTQVTVSS | high polyreactivity |
| QVQRVETGGGLFQAGGSLRLSCAASGRTFGPYAMGWYIQAPGKERELVAAIRYIDDSTFYADSVKGRFTISRDNAKNTVYVQMNSLKPEDTAVYYCAAQRRVVGRHGLSLIRYDYWGQGTQVTVSS | low polyreactivity |
| QVQLVESGGGLVQAGGSLRLSCAASGLTFRPNAMGWYRQAPGKERELVAAITWRGGRTYYADSVKGRFTISRDNAKNTVYLQMNSLKPEDTAVYYCAADSPYRGRPGPLNYGGDYWGQGTQVTVSS | high polyreactivity |
| QVQLVESGGGLVQAGGSLRLSCAASGSIIHFYAMGWYRQAPGKERELVAAITSGTSTYYADSVKGRFTISRDNAKNTVYLQMNSLKPEDTAVYYCAAEASHYYYNAYPSYGGSDYWGQGTQVNVSS | low polyreactivity |
| QVQLVESGGGLVQAGGSLRLSCAASGRIFGINAMGWYRQAPGKERELVAAINRSGDTTNYADSVKGRFTISRDNAKNTVYLQMNSLKPEDTAVYYCAADGYRQVYYRYYYWGQGTQVTVSS | high polyreactivity |
| QVQLVESGGGLVQAGGSLRLSCAASGSTFNTYVMGWYRQAPGKERELVAAISSSGGTTYYADSVKGRFTISRDNAKNTVYLQMNSLKPEDTAVYYCNAVPKYGSRLYRYGYWGQGTQVTVSS | high polyreactivity |
| QVQLVESGGGLVQAGGSLRLSCAASGGIISMYDIGWYRQAQGKERQLVAAISQSGGSTYYADYVKGRFTISRDNAKNTVYLQMNSLNPEVTGVYYCAADLYLTLIGFIFTGEEYWGQGTQGTVSS | low polyreactivity |
| QVQLVDSGGGLVQAGGSLRLSCAASGRTFYPYVMGWYRQPPGKERELVADISWSGGRTYYADSVKGRFTISRDNAKNTVYLQMNSLKPEDTAVYYCAAGYRRRYNYWGQGTQVTVSS | high polyreactivity |
| PVQLVESGGRLVQEGGSLRLICAASARIFPYYSMGWSRPAPGKERELVAAITTSGCRTYYADSVKGRFTISRDNAKYSVYLLMNSMKPEYTAVYVCNKYARGYDMDYWGQGTQVTVSS | high polyreactivity |
| QVQLVDSGGGLVQAGGSLRFSCAASGSIFYSNAMGWYRQAPGKERELVAAISDGGTSTYYADSVKVRFTISRDNAKNTVYLQMNSLKPEDTAVYYCAAESTLQDWNWYKYYYWGQGTQVTVSS | low polyreactivity |
